{"source": "paper PMC5253702", "target": "B/Victoria/504/2000 HA ectodomain (residues 1–530), soluble, His-tagged (influenza B virus B/Victoria/504/2000)", "assay": "negative stain EM reconstruction"}
{"substance": "B/Victoria/504/2000 HA ectodomain (residues 1–530), soluble, His-tagged (domain or fragment)", "values": [{"measurement": "stoichiometry N", "result": 3}]}
